Experimental data reported in patent US20220194999A1 (Janssen / Centocor, published 2022).

What was measured:
[1] = molecular target: T1, HLA-A*02:01 class I complex (conditional p*HLA*02:01, biotinylated heavy chain with beta2-microglobulin) (human, biotinylated heavy chain); assay: UV peptide exchange, HLA class I ELISA, % of Pos peptide;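 for Average %: Streptavidin-captured HLA complexes after exchange detected via HRP anti-human B2M antibody, absorbance read, colour scales with intact complex, normalized to exchange control peptide as 100%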;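 for Exch I (%): Streptavidin-captured HLA complexes after exchange detected via HRP anti-human B2M antibody, absorbance read, colour scales with intact complex, normalized to exchange control peptide as 100%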;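 for Exch II (%): Streptavidin-captured HLA complexes after exchange detected via HRP anti-human B2M antibody, absorbance read, colour scales with intact complex, normalized to exchange control peptide as 100%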
T1 construct: UV-labile peptide p* is cleaved and exchanged for the test peptide; also called HLA 2.1
Text: (§1) The HLA class I ELISA is an enzyme immunoassay based on the detection of beta2-microglobulin (B2M) of (peptide-stabilized) HLA class I complexes. To this end streptavidin is bound onto polystyrene microtiter wells. After washing and blocking, HLA complex present in exchange reaction mixtures or ELISA controls is captured by the streptavidin on the microtiter plate via its biotinylated heavy chain. Non-bound material is removed by washing. Subsequently, horseradish peroxidase (HRP)-conjugated antibody to human B2M is added. […] In the latter case B2M is removed during the washing step. After removal of non-bound HRP conjugate by washing, a substrate solution is added to the wells. A colored product is formed in proportion to the amount of intact HLA complex present in the samples. After the reaction has been terminated by the addition of a stop solution, absorbance is measured in a microtiter plate reader. The absorbance is normalized to the absorbance of an exchange control peptide (represents 100%). Also, suboptimal HLA binding of peptides with a moderate to low affinity for HLA class I molecules can be detected by this ELISA technique
(§2) Coating wells of two NUNC MaxiSorp™ 96-well ELISA plates: only the contents of one coating buffer capsule were dissolved in 100 mL of distilled water (0.05 M carbonate-bicarbonate buffer, pH 9.6 at 25° C.). 46 μL of Streptavidin stock solution were added to 23 mL coating buffer. 100 μL of the Streptavidin stock solution were added to all wells. Each microtiter plate was covered with an adhesive seal and incubated overnight at room temperature (18-25° C.).

[2] = molecular target: T1, HLA-A*02:01 class I complex …; assay: as above; remark: listed apart in the source
Text: as §1, §2

[3] = molecular target: T1, HLA-A*02:01 class I complex …; assay: UV peptide exchange, HLA class I ELISA; low end of the group, member by Table 4
Text: as §1, §2

[4] = molecular target: T1, HLA-A*02:01 class I complex …; assay: UV peptide exchange, HLA class I ELISA; high end of the group, member by Table 4
Text: as §1, §2

| Binder | average relative binding (%) [1] | Average % [2] | Exch I (%) [2] | Exch II (%) [2] | average relative binding (%) [3] | average relative binding (%) [4] |
| --- | --- | --- | --- | --- | --- | --- |
| YLDCGIHSV (also called M022) [CTNNB1_S33C5 mimic peptide YLDCGIHSV] | > 100% | 102% | 100% | 104% | 102 to 113% |  |
| VLSDAISAV (also called M121; SOX17_S40312) [SOX17_S403I2 mimic peptide VLSDAISAV] |  | 90.1% | 89.3% | 90.9% | 90 to 100% |  |
| GLAPPQLLI (also called M140) [TP53.H193L mutant peptide GLAPPQLLI] | < 15% | 8.2% | 9.2% | 7.2% |  |  |
| GMAPPQLLV (also called M142) [TP53_H193L6 mimic peptide GMAPPQLLV] | < 15% | 13.9% | 13.9% | 13.9% |  |  |
| GLAPPQYLI (also called M150) [TP53.H193Y mutant peptide GLAPPQYLI] | < 15% | 13.3% | 13.5% | 13.1% |  |  |
| SMTCTYFPV (also called M213) [TP53_S127F7 mimic peptide SMTCTYFPV] |  | 88.4% | 83.4% | 93.3% |  | 80 to 88% |
| VLPCEPPEV (also called M231) [TP53_Y220C2 mimic peptide VLPCEPPEV] |  | 70% | 66.3% | 73.7% | 70 to 79% |  |
| VMPCEPPEV (also called M232) [TP53_Y220C3 mimic peptide VMPCEPPEV] |  | 60.9% | 62.9% | 58.9% | 61 to 69% |  |
| LLVVGAAGV (also called M051) [KRAS_G12A2 mimic peptide LLVVGAAGV] |  | 33.3% | 34.1% | 32.5% | 33 to 38% |  |
| LMVVGACGV (also called M062) [KRAS_G12C3 mimic peptide LMVVGACGV] |  | 48.7% | 47.1% | 50.4% |  | 41 to 49% |
| YMDSGIHFV (also called M033) [CTNNB1_S37F6 mimic peptide YMDSGIHFV] |  | 99.8% | 104% | 95.5% |  | 90 to 100% |
| YLDSGIHFV (also called M032) [CTNNB1_S37F5 mimic peptide YLDSGIHFV] | > 100% | 104% | 99.3% | 109% |  |  |
| YMDSGIHFI (also called M031) [CTNNB1_S37F14 mimic peptide YMDSGIHFI] | > 100% | 107% | 97.6% | 116% |  |  |
| YMDSGIHFL (also called M035) [CTNNB1.S37F10 mimic peptide YMDSGIHFL] | > 100% | 105% | 102% | 108% |  |  |
| SVTCTYFPA (also called M210) [TP53.S127F mutant peptide SVTCTYFPA] | < 15% | 8.6% | 7.7% | 9.4% |  |  |
| NMDEYVHNT (also called M110) [SF3B1.R625H mutant peptide NMDEYVHNT] | < 15% | 8.3% | 9.2% | 7.3% |  |  |
| NMDEYVHNL (also called M113) [SF3B1_R625H9 mimic peptide NMDEYVHNL] |  | 58.1% | 62% | 54.3% |  | 50 to 58% |
| YQGSYGFLL (also called M200) [TP53.R110L mutant peptide YQGSYGFLL] | < 15% | 11.9% | 14.3% | 9.6% |  |  |
| YQGSYGFLI (also called M201) [TP53_R110L3 mimic peptide YQGSYGFLI] | < 15% | 8.9% | 7.1% | 10.8% |  |  |
| YQGSYGFLV (also called M202) [TP53_R110L4 mimic peptide YQGSYGFLV] |  | 49.6% | 53.6% | 45.6% | 50 to 58% |  |
| KLYPVQLWV (also called M131) [TP53_C141Y2 mimic peptide KLYPVQLWV] |  | 81.9% | 84.1% | 79.8% | 80 to 88% |  |
| CYLYYYSYLL (also called M101) [PTEN R173C2 mimic peptide CYLYYYSYLL] |  | 18.3% | 16.1% | 20.6% | 18 to 28% |  |
| CYVYYYSYLL (also called M100) [PTEN.R173C mutant peptide CYVYYYSYLL] |  | 38.4% | 38.2% | 38.5% |  | 33 to 38% |
| CYMYYYSYLI (also called M106) [PTEN.R173C11 mimic peptide CYMYYYSYLI] | < 15% | 4.9% | 4.9% | 4.8% |  |  |
| GLKDLLNPI (also called M080) [PIK3CA.E453K mutant peptide GLKDLLNPI] |  | 79.4% | 73.8% | 84.9% |  | 70 to 79% |
| ALNNMFCQV (also called M161) [TP53_K132N5 mimic peptide ALNNMFCQV] |  | 69.3% | 69.7% | 68.8% |  | 61 to 69% |
| RLIHRDLAA (also called M240) [ERBB2.V842I mutant peptide RLIHRDLAA] | < 15% | 7.2% | 6.8% | 7.7% |  |  |
